Earlier results as cited in patent publication US7235367B2, “Method using crystal structure of estrogen receptor-β complex” (Genetics Institute, LLC., priority 2000, dated 2007).

Target: ER-β (Homo sapiens, UniProt Q92731)
Settings: co-activator, ER-β versus ER-α

Sequence of ER-β (Q92731 whole entry): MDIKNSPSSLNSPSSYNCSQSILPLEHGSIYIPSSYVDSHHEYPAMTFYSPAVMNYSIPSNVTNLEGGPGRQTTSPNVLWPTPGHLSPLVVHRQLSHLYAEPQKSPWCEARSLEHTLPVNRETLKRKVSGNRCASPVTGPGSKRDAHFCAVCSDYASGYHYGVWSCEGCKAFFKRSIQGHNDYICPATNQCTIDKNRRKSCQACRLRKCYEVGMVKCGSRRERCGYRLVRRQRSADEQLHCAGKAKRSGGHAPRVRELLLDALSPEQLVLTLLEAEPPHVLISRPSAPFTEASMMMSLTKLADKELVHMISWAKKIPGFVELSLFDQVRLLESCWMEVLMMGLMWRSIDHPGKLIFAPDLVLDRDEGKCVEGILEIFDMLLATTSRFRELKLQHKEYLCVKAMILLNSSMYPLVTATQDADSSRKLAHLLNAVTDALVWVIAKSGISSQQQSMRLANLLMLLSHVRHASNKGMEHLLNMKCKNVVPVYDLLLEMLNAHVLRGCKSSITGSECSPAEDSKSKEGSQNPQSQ

Substance: SRC-1: co-activator protein that preferentially activates ER-β
- preferential activation of ER subtype: preferentially activates ER-β
